Test results published in publication PMC3464233, “Structural Basis of Differential Neutralization of DENV-1 Genotypes by an Antibody that Recognizes a Cryptic Epitope” (PLoS Pathogens, 2012).
Changes are numbered by the printed parent chain.

T1: DENV-1 strain Western Pacific-74 E protein domain III (residues 293-399) (Dengue virus 1, strain Nauru/Western …, strain)
T1 chain: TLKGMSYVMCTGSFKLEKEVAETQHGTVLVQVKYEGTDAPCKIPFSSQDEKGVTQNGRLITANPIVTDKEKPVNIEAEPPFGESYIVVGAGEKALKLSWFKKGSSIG

T2: DENV-1 strain 16007 E protein domain III (residues 293-399) (Dengue virus 1, strain 16007 (genotype …, strain))
T2 construct: Dengue virus 1 strain 16007 (genotype 2), envelope (E) protein domain III, residues 293-399; untagged; also called 16007 DIII; DIII of 16007; source: BL21 bacterial cells (pET21a, autoinduction); inclusion bodies solubilized and oxidatively re-folded
T2 chain: T1 chain with S47T, V53A

B1: DENV1-E111 monoclonal antibody (antibody, V domains shown)
VH: QVQLLQPGAELVKPGASMKLSCKASGYTFTNWWMHWVRLRPGRGLEWIGRIDPNSDVNKYNEKFENRASLTVDKHSSTAYMQLSSLTSEDSAIYYCARWFFPWYFDVWGTGTTVTVSS
VL: NIVLTQSPASLAVSLGQRATISCRASESVDHYGNSFIYWYQQKPGQPPKLLIYLASNLESGVPARFSGSGSETDFTLTIDSVETDDAATYYCQQNNEDPYTFGGGTKLEIK
notes: also called E111 MAb; E111 IgG; source: E111 hybridoma
B2: E111 single-chain variable fragment (VL at the N-terminus) (scFv, V domains shown)
VH: B1 VH
VL: B1 VL
notes: E111 VL; as the VL of the light chain of m1; (GGGGS)3 linker; E111 VH; as the VH of the heavy chain of m1; The monomeric species was used for the structure; a second construct with VH first was also made but not used; also called E111 scFv

Tests used:
[1] = target: DENV-1 strain 16007 E protein domain III (residues 293-399) (Dengue virus 1 (strain 16007, genotype 2))
[2] = target: DENV-1 strain TVP-2130 E protein domain III (Dengue virus 1 (strain TVP-2130, genotype 1))
[3] = target: DENV-1 strain 16007 E protein domain III (residues 293-399) (Dengue virus 1 (strain 16007, genotype 2)); remark: listed apart in the source
[4] = target: DENV1-E111 monoclonal antibody; assay: SPR; Biacore T100; about 500 RU of E111 MAb or scFv amine-coupled to a Series S CM5 chip; two-fold dilution series of DIII variants injected 180 s, dissociation 1,000 s; 25°C; double referencing against WNV E16 MAb/scFv flow cell; 1:1 Langmuir fit
[5] = target: DENV1-E111 monoclonal antibody; assay: not stated; half-life of binding of 16007 DIII K343I with E111; unpublished results
[6] = target: DENV-1 strain 3146 SL E protein domain III (Dengue virus 1 (strain 3146 SL, genotype 5))
[7] = target: DENV-1 strain TVP-5175 E protein domain III (Dengue virus 1 (strain TVP-5175, genotype 3))
[8] = target: DENV-1 strain 3146 SL E protein domain III (Dengue virus 1 (strain 3146 SL, genotype 5)); remark: listed apart in the source
[9] = target: DENV-1 West Pac-74 DIII V345A (Dengue virus 1 (strain Western Pacific-74, genotype 4))
[10] = target: T1, DENV-1 strain Western Pacific-74 E …; assay: cell-based or functional assay
[11] = target: T1, DENV-1 strain Western Pacific-74 E …; assay: SPR; Biacore T100; about 500 RU of E111 MAb or scFv amine-coupled to a Series S CM5 chip; two-fold dilution series of DIII variants injected 180 s, dissociation 1,000 s; 25°C; double referencing against WNV E16 MAb/scFv flow cell; 1:1 Langmuir fit; details: both partners purified
[12] = target: T1, DENV-1 strain Western Pacific-74 E …; assay: as above; details: both partners purified
[13] = target: E111 single-chain variable fragment (VL at the N-terminus); assay: SEC; E111 scFv after nickel affinity; two species resolved
[14] = target: T2, DENV-1 strain 16007 E protein domain …; assay: SPR; Biacore T100; about 500 RU of E111 MAb or scFv amine-coupled to a Series S CM5 chip; two-fold dilution series of DIII variants injected 180 s, dissociation 1,000 s; 25°C; double referencing against WNV E16 MAb/scFv flow cell; 1:1 Langmuir fit; details: both partners purified

| Molecule | Kd [4] [nM] | koff [4] [s⁻¹] | kon [4] [M⁻¹ s⁻¹] | t1/2 [4] [min] | other results |
| --- | --- | --- | --- | --- | --- |
| DENV1-E111 monoclonal antibody |  |  |  |  | PRNT50, plaque reduction neutralisation of DENV-1 16007 (genotype 2) on Vero cells [1]: 3.8 ng/mL; PRNT50, plaque reduction neutralisation of DENV-1 TVP-2130 (genotype 1) on Vero cells [2]: > 25000 ng/mL; EC50 of neutralisation of 16007 RVP after incubation with E111 at 37°C (1 to 22 h) or 40°C (to 4.5 h); fold increase in potency at 40°C for 4.5 h [3]: 3.5 fold |
| DENV-1 16007 DIII A345V (domain or fragment) | 1140 | 0.131 | 114000 | 0.0883 |  |
| DENV-1 16007 DIII A369T (domain or fragment) | 25.3 | 0.00383 | 151000 | 3.04 |  |
| DENV-1 16007 DIII D341N (domain or fragment) | 18.9 | 0.00402 | 213000 | 2.88 |  |
| DENV-1 16007 DIII K310E/T329E/K361T (domain or fragment) | 39.8 | 0.00457 | 121000 | 2.58 |  |
| DENV-1 16007 DIII K343I (domain or fragment) |  |  |  |  | t1/2 [5]: 45 min |
| DENV-1 16007 DIII L351V (domain or fragment) | 107 | 0.0237 | 211000 | 0.548 |  |
| DENV-1 16007 DIII T339S (domain or fragment) | 16.6 | 0.00313 | 191000 | 3.71 |  |
| DENV-1 16007 DIII V380I (domain or fragment) | 19 | 0.00236 | 124000 | 4.94 |  |
| DENV-1 strain 3146 SL E protein domain III (domain or fragment) | 523 | 0.142 | 267000 | 0.0917 |  |
| DENV-1 strain 16007 E protein domain III (residues 293-399) (domain or fragment) | 18 | 0.00356 | 198000 | 3.23 |  |
| DENV-1 strain TVP-5175 E protein domain III (domain or fragment) | 1980 | 0.312 | 162000 | 0.0367 |  |
| B1 |  |  |  |  | PRNT50, plaque reduction neutralisation of DENV-1 3146 SL (genotype 5) on Vero cells [6]: 21 ng/mL; PRNT50, plaque reduction neutralisation of DENV-1 TVP-5175 (genotype 3) on Vero cells [7]: > 25000 ng/mL; EC50, plaque reduction neutralisation of DENV-1 3146 SL (genotype 5) [8]: 0.022 µg/mL; neutralisation of V345A West Pac-74 RVP against wild-type West Pac-74 RVP, Raji-DC-SIGNR cells, fold enhancement [9]: 3.6 fold; EC50 of neutralisation of West Pac-74 RVP after incubation with E111 at 37°C (1 to 22 h) or 40°C (to 4.5 h); fold reduction at 40°C for 4.5 h [10]: 20 fold; Kd [11]: 415 ± 24 nM; Kd [12]: 416 nM; koff [12]: 0.106 s⁻¹; kon [12]: 256000 M⁻¹ s⁻¹; t1/2 [12]: 0.108 min |
| B2 |  |  |  |  | stoichiometry N [13]: 2; Kd [14]: 24.6 nM; koff [14]: 0.00695 s⁻¹; kon [14]: 288000 M⁻¹ s⁻¹; t1/2 [14]: 1.68 min; Kd [12]: 1830 nM; koff [12]: 0.275 s⁻¹; kon [12]: 151000 M⁻¹ s⁻¹; t1/2 [12]: 0.0422 min |
